Experimental data as given in patent US11104673B2, “Quaternary amine compounds and antibody-drug conjugates thereof” (priority 2014, dated 2021).

Columns and labels:
BJAB = assay: In vitro cell proliferation assay, ADC killing of BJAB cells; format: cell-based, human
NCI-H441 = assay: EdU Prolif assay, NCI-H441; format: cell-based; details: NCI-H441 cells
Jurkat = assay: In vitro cell proliferation assay, ADC killing of Jurkat cells; format: cell-based
WSU-DLCL2 = assay: In vitro cell proliferation assay, ADC killing of WSU-DLCL2 cells; format: cell-based, human

B1: ADC1-1: Anti-Napi2b 10H1.11.4B LC K149C antibody conjugated with the Example 1 linker-drug MC-Sq-Cit-PAB Dolastatin 10 (conjugate)
VH: EVQLVESGGGLVQPGGSLRLSCAASGFSFSDFAMSWVRQAPGKGLEWVATIGRVAFHTYYPDSMKGRFTISRDNSKNTLYLQMNSLRAEDTAVYYCARHRGFDVGHFDFWGQGTLVTVSS
VL: DIQMTQSPSSLSASVGDRVTITCRSSETLVHSSGNTYLEWYQQKPGKAPKLLIYRVSNRFSGVPSRFSGSGSGTDFTLTISSLQPEDFATYYCFQGSFNPLTFGQGTKVEIKR
BJAB
  BJAB IC50: >20000 ng/mL
  IC50: > 133 nM
NCI-H441
  IC50: 95.4 nM
  NCI-H441 IC50: 14310 ng/mL
Jurkat
  IC50: 73.6 nM
  Jurkat IC50: 11040 ng/mL
WSU-DLCL2
  IC50: 44.2 nM
  WSU-DLCL2 IC50: 6630 ng/mL
